Experimental data as given in PMC11972413.

How the values were obtained:
Experiment in all cases: cryo-EM structure
[1] = target: short-tail fiber (STF) (bacteriophage φTE)
[2] = target: adapter protein (bacteriophage φTE)
[3] = target: hub protein (bacteriophage φTE)
[4] = target: puncture apparatus (PA) (bacteriophage φTE)
[5] = target: long-tail fiber (LTF) (bacteriophage φTE)
[6] = target: tape measure protein (TMP), six-stranded part along the tail (bacteriophage φTE)
[7] = target: portal protein (bacteriophage φTE)
[8] = target: tube initiator (TI) protein (bacteriophage φTE)
[9] = target: minor capsid protein (DEC) (bacteriophage φTE)
[10] = target: tail tube protein (bacteriophage φTE)
[11] = target: major capsid protein (MCP) (bacteriophage φTE)
[12] = target: tail sheath protein (bacteriophage φTE)

short-tail fiber (STF) (natural protein)
stoichiometry N [1]: 3

adapter protein (natural protein)
stoichiometry N [2]: 12

puncture apparatus (PA) (natural protein)
stoichiometry N [3]: 1
stoichiometry N [4]: 3

long-tail fiber (LTF) (natural protein)
stoichiometry N [5]: 3

tape measure protein (TMP), six-stranded part along the tail (natural protein)
stoichiometry N [6]: 6

portal protein (natural protein)
stoichiometry N [7]: 12

tube initiator (TI) protein (natural protein)
stoichiometry N [8]: 6

hub protein (natural protein)
stoichiometry N [3]: 3

minor capsid protein (DEC) (natural protein)
stoichiometry N [9]: 3

tail tube protein (natural protein)
stoichiometry N [10]: 6

major capsid protein (MCP) (natural protein)
stoichiometry N [11]: 6

tail sheath protein (natural protein)
stoichiometry N [12]: 6
